Tests used:
[1] = target: T1, recombinant human Tie2 extracellular domain (human, UniProt Q02763 23-748); test: SPR, IgG captured, 37C
T1 construct: whole entry named; also called Recombinant human Tie2 ECD; hu Tie2
Description: (§1) Antibodies were screened for binding to recombinant human and cyno Tie2 using a Biacore T200 instrument (GE Life Sciences). Briefly, a human antibody capture chip was generated using a Series S CM5 chip, a human antibody capture kit, and an amine coupling kit (GE Life Sciences). Antibodies diluted to 5 μg/ml were captured using a flow rate of 10 μl/minute and a contact time of 20 seconds. Binding of 300 nM and 1500 nM recombinant human and cyno Tie2 extracellular domain to the captured antibodies was analyzed at 37° C. using a single cycle kinetics method with a flow rate of 50 μl/minute, a contact time of 60 seconds and a dissociation time of 120 seconds. Between cycles, the chip was regenerated using 3M MgCl₂ injected for 30 seconds at 30 μl/minute. Data were evaluated using Biacore T200 Evaluation software (GE Life Sciences). Kinetic constants were obtained using a 1:1 binding model with the parameter RI set to zero. Selected antibodies (Table 7A-7B; ch denotes rabbit Abs; TEK denotes rat Abs) were taken forward for secondary activity screening in Fab-NDK format (see Example 8 below).

[2] = target: T2, recombinant cyno Tie2 extracellular domain (cynomolgus monkey, UniProt Q02763 23-748 (human entry)); test: SPR, IgG captured, 37C
T2 construct: also called Recombinant cyno Tie2 ECD; cy Tie2
T2 chain: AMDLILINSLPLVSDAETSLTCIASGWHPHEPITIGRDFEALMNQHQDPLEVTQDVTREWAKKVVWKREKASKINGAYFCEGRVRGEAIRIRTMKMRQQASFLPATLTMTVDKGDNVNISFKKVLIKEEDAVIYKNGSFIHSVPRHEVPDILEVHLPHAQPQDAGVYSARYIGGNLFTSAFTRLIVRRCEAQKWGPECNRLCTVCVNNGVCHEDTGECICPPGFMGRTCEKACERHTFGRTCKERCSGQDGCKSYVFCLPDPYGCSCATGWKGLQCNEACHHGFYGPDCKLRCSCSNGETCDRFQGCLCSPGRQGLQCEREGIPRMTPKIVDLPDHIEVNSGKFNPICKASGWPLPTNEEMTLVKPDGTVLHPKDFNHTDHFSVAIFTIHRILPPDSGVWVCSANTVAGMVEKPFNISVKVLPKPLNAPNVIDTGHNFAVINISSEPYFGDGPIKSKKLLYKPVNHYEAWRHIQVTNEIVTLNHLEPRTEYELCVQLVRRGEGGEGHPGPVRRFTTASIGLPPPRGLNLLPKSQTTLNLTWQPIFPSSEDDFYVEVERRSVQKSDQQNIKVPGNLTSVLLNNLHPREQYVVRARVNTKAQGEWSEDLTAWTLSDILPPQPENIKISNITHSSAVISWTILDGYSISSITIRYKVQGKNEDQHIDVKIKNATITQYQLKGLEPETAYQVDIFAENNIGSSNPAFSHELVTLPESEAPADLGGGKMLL
Description: as §1

[3] = target: T2, recombinant cyno Tie2 extracellular …; test: SPR multi-cycle kinetics, IgG captured, kinetic analysis
Description: Binding to recombinant human and cyno Tie2 was analyzed using a high performance multi-cycle kinetics format with a contact time of 60 seconds, a dissociation time of 60 seconds, a flow rate of 100 μl/minute and Tie2 concentrations of 5 μM, 2.5 μM, 1.25 μM, 625 nM, 313 nM and 156 nM. Tie2 concentrations of 5 μM, 2.5 μM and 1.25 μM were injected twice. Results were analyzed using Biacore T200 Evaluation Software v3.0 (GE Life Sciences). Results from all three surface densities were analyzed together using the 1:1 Binding model with multiple Rmax and the RI parameter set to zero.

[4] = target: T3, human Tie1 (human, UniProt P35590 22-759); test: ELISA: human Tie1 immobilized, serial dilutions of IgG, anti-huFc-HRP
T3 construct: extracellular domain
T3 sequence (looked up): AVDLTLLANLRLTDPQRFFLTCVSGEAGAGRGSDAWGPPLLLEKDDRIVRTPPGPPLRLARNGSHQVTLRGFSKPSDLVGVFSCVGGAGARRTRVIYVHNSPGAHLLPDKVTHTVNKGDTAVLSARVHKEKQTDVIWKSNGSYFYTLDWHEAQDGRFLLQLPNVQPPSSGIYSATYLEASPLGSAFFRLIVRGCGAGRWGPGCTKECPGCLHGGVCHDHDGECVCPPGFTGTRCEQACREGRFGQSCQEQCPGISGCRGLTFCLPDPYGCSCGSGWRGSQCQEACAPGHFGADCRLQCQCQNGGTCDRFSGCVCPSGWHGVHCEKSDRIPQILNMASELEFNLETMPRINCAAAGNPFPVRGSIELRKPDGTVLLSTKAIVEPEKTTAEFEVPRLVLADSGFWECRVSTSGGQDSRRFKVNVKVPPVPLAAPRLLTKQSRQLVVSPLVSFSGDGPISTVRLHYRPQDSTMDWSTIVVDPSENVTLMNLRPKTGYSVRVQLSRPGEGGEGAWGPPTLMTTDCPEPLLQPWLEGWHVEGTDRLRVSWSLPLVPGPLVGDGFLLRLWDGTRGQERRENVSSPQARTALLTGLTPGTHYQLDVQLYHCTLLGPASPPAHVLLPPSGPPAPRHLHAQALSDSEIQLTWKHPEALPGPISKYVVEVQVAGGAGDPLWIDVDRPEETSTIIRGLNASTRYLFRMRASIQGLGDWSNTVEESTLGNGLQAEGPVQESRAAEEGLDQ
Source text: Plates were washed and detected with anti-huFC-conjugated HRP secondary antibody using the methods above.
The binding ELISA was also used with immobilized Tie1 protein to assess Tie1 binding.

Kd [1]: 3 µM
koff [1]: 0.3 s⁻¹
kon [1]: 100000 M⁻¹ s⁻¹
Kd [2]: 4 µM
koff [2]: 0.3 s⁻¹
kon [2]: 90000 M⁻¹ s⁻¹
koff [3]: 0.44 s⁻¹
kon [3]: 150000 M⁻¹ s⁻¹
binding result [4]: no binding (tested: 200 nM)
B1: Tie2.1 (antibody, human IgG1, V domains shown)
VH: EVQLVESGGGLVQPGGSLRLSCAASGFTFSNTDISWVRQAPGKGLEWVGRISPSDGNTYYADSVKGRFTISADTSKNTAYLQMNSLRAEDTAVYYCARRTRWASWAMDYWGQGTLVTVSS
VL: DIQMTQSPSSLSASVGDRVTITCRASQDVSTAVAWYQQKPGKAPKLLIYSASFLYSGVPSRFSGSGSGTDFTLTISSLQPEDFATYYCQQSYTTPPTFGQGTKVEIKR
notes: human IgG1 in all later assays; also called Ab1; Tie2.1.M100c
